We go through 2 compounds from US6790610B2, “Alzheimer's disease, secretase, APP substrates therefor, and uses therefor” (Pharmacia & Upjohn Company, priority 1998, dated 2004).

The target of assay [1] is T1, Recombinant human Asp2(a) (Homo sapiens, UniProt P56817).
T1 construct: made in house; β-octylglucoside membrane extract purified over Mono Q and Mono S
Briefly: β-Secretase assay with synthetic peptide substrates (RP-HPLC). The assay is classed as biochemical. The procedure: Recombinant human Asp2(a) prepared in CHO cells and purified as described in Example 11 was used to assay Asp2(a) proteolytic activity directly. Activity assays for Asp2(a) were performed using synthetic peptide substrates containing either the wild-type APP β-secretase site (SEVKM ↓DAEFR; SEQ ID NO: 64), the Swedish KM→NL mutation (SEVNL↓DAEFR; SEQ ID NO: 63), or the Aβ40 and 42 γ-secretase sites (RRGGVV↓IA↓TVIVGER; SEQ ID NO: 65). Reactions were performed in 50 mM 2-[N-morpholino]ethane-sulfonate (“Na-MES,” pH 5.5) containing 1% β-octylglucoside, […] peptide substrate, and recombinant Asp2(a) (1-5 μg protein) for various times at 37° C. The reaction products were quantified by RP-HPLC using a linear gradient from 0-70 B over 30 minutes (A=0.1% TFA in water, B=0.1% TFA/10% water/90% AcCN). The elution profile was monitored by absorbance at 214 nm. […] Percent hydrolysis of the peptide substrate was calculated by comparing the integrated peak areas for the two product peptides and the starting material derived from the absorbance at 214 nm. […]
The specificity of the protease cleavage reaction was determined by performing the β-secretase assay in the presence of 8 μM pepstatin A and the presence of a cocktail of protease inhibitors (10 μM leupeptin, 10 μM E64, and 5 mM EDTA). […]

In a further assay the target is T2, Hu-Asp2(b) (Homo sapiens, UniProt P56817).
T2 construct: made in house; host or cells: CHO-K1 transfected with pcDNA3.1(+)Hygro/Hu-Asp2(b); β-octylglucoside extract purified over Mono Q and Mono S
T2 sequence (P56817 46-476 isoform P56817-2): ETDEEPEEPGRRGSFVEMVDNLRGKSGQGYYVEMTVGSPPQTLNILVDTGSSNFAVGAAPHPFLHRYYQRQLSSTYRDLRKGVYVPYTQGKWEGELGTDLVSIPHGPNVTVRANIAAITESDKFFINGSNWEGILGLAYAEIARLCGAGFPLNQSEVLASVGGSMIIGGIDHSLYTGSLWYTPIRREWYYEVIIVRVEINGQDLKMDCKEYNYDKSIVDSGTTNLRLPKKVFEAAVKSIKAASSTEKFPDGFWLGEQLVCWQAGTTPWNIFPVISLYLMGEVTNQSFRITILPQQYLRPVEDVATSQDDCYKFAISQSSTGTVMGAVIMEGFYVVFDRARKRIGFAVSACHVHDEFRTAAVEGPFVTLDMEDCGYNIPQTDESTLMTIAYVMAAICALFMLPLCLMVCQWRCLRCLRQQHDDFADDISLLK
Briefly: β-Secretase proteolysis assay with Hu-Asp2(b). Type of assay: biochemical. The following applies: identical assay conditions to Asp2(a). The procedure: Recombinant human Asp2(a) prepared in CHO cells and purified as described in Example 11 was used to assay Asp2(a) proteolytic activity directly. Activity assays for Asp2(a) were performed using synthetic peptide substrates containing either the wild-type APP β-secretase site (SEVKM ↓DAEFR; SEQ ID NO: 64), the Swedish KM→NL mutation (SEVNL↓DAEFR; SEQ ID NO: 63), or the Aβ40 and 42 γ-secretase sites (RRGGVV↓IA↓TVIVGER; SEQ ID NO: 65). Reactions were performed in 50 mM 2-[N-morpholino]ethane-sulfonate (“Na-MES,” pH 5.5) containing 1% β-octylglucoside, […] peptide substrate, and recombinant Asp2(a) (1-5 μg protein) for various times at 37° C. The reaction products were quantified by RP-HPLC using a linear gradient from 0-70 B over 30 minutes (A=0.1% TFA in water, B=0.1% TFA/10% water/90% AcCN). The elution profile was monitored by absorbance at 214 nm. In preliminary experiments, the two product peaks which eluted before the intact peptide substrate, were confirmed to have the sequence DAEFR (SEQ ID NO: 72)and SEVNL (SEQ.ID NO: 73) using both Edman sequencing and MADLI-TOF mass spectrometry. Percent hydrolysis of the peptide substrate was calculated by comparing the integrated peak areas for the two product peptides and the starting material derived from the absorbance at 214 nm. […]

Where a SMILES comes first, the peptide text is derived from it. [ ]: non-standard residue; d: D form. The star is where a group is joined. Sta = CC(C)C[C@H](N)[C@@H](O)CC(=O)O; Isovaleryl = CC(C)CC(=O)*

T1 sequence (P56817 46-501): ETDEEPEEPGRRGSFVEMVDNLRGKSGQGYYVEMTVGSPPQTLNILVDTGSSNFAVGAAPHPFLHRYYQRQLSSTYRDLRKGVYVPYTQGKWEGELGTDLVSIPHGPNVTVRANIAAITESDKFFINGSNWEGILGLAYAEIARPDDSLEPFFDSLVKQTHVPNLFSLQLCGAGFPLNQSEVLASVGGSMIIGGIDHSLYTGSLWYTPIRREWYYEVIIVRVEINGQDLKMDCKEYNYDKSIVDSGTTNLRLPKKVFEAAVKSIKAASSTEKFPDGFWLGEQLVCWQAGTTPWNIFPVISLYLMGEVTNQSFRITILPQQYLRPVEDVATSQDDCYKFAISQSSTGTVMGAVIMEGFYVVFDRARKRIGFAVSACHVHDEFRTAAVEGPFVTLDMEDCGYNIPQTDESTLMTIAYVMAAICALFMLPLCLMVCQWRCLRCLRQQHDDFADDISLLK

In the case of `CC(C)CC(=O)N[C@H](C(=O)N[C@H](C(=O)N[C@@H](CC(C)C)[C@@H](O)CC(=O)N[C@@H](C)C(=O)N[C@@H](CC(C)C)[C@@H](O)CC(=O)O)C(C)C)C(C)C` [pepstatin A] (Isovaleryl-VV[Sta]A[Sta]-OH), the “sensitivity of proteolytic activity to inhibitor” value in assay [1] (8 μM pepstatin A) is given as “insensitive”. In the case of “SEVNLDAEFR (OTHER INFORMATION: Description of Artificial Sequence: synthetic) [Swedigh β-secretase peptide, synthetic peptide substrate containing the Swedish KM→NL mutation of the APP β-secretase site]”, in assay [1] (after 6 hours, pH 5.5, 37° C.), the “proteolysis relative to wild type APP peptide” value is “about 10 fold”. For the same compound, the “cleavage of peptide substrate” value in the assay with Hu-Asp2(b) was “cleaves”.
